In US20080009025:
Where a chain is given by its changes, count along the chain named. Names may count otherwise.

Experiments:
[1] = biological target: PDKtide (39 amino acid polypeptide, T308tide fused to PIFtide)
T308tide = biological target: T1, T308tide
T1 chain: KTFCGTPEYLAPEV

D978A-PIFtide = biological target: T2, D978A-PIFtide
T2 chain: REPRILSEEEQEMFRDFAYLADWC

[2] = biological target: GST-PKBα (full length), P31749
[3] = biological target: GST-PKBα[F472A] (full length), P31749
[4] = biological target: GST-PKBα[S473D] (full length), P31749
Sequence of GST-PKBα[S473D] (full length), P31749 (P31749 whole entry S473D, looked up): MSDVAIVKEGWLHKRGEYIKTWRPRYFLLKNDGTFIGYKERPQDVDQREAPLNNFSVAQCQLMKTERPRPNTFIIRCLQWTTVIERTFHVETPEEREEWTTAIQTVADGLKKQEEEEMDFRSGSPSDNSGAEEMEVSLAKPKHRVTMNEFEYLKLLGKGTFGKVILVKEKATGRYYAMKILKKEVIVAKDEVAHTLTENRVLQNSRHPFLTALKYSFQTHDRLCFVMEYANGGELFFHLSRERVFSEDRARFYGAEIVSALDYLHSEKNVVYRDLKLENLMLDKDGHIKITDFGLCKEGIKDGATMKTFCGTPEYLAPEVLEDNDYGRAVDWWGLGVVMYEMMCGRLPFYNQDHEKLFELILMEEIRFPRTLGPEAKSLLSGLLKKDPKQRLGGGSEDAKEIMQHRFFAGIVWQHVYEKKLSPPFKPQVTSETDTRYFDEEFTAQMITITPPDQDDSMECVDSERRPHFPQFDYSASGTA

[5] = biological target: GST-SGK1 (lacking the N-terminal 60 amino acids), O00141
Sequence of GST-SGK1 (lacking the N-terminal 60 amino acids), O00141 (O00141 whole entry, looked up): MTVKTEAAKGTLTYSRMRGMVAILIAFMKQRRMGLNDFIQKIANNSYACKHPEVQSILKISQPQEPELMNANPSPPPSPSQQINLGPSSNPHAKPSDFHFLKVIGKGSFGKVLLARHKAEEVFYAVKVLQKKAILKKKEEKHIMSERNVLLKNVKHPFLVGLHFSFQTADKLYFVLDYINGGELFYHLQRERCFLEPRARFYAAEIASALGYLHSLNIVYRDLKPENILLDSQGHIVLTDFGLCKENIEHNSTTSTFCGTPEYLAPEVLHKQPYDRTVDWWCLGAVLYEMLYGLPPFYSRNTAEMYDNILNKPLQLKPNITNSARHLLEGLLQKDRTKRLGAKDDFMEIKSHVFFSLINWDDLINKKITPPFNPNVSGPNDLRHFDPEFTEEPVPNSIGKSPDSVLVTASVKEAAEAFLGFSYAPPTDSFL

[6] = biological target: GST-SGK1[T422D] (lacking the N-terminal 60 amino acids), O00141
Sequence of GST-SGK1[T422D] (lacking the N-terminal 60 amino acids), O00141 (O00141 whole entry, looked up, stated change not applied): as the sequence (O00141 whole entry, looked up) above

[7] = biological target: GST-ΔPH-PKBα[S473D], P31749
Sequence of GST-ΔPH-PKBα[S473D], P31749 (P31749 whole entry S473D, looked up): as the sequence (P31749 whole entry S473D, looked up) above

[8] = biological target: His-412E-p70 S6K-T2, P23443
Sequence of His-412E-p70 S6K-T2, P23443 (P23443 whole entry, looked up): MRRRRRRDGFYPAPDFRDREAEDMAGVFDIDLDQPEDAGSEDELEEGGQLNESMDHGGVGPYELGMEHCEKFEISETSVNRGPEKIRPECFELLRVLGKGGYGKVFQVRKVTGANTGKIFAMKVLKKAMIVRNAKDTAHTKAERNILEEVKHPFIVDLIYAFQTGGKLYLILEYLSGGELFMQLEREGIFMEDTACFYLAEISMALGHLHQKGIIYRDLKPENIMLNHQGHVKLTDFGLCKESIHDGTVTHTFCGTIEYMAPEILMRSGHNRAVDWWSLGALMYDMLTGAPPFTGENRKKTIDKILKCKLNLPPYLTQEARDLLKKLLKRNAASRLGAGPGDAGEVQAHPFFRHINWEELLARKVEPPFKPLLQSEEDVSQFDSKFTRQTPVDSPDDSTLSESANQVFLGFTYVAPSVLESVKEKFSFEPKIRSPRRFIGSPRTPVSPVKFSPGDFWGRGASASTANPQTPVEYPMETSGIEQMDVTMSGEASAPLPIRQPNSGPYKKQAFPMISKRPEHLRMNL

[9] = biological target: His-p70 S6K-T2 (p70 S6K with N-terminal His tag lacking the carboxy terminal 104 residues), P23443
Sequence of His-p70 S6K-T2 (p70 S6K with N-terminal His tag lacking the carboxy terminal 104 residues), P23443 (P23443 whole entry, looked up): as above

[10] = substrate: PIF peptide with Asp978 changed to phosphoserine
[11] = biological target: T3, PIFtide (24 residue synthetic peptide encompassing the PDK1 binding site on PIF)
T3 chain: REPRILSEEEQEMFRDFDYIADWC

Sequence of GST-ΔPH-PKBα, P31749 (P31749 whole entry, looked up, stated change not applied): as the sequence (P31749 whole entry S473D, looked up) above, with D473S counted along it
Sequence of GST-PKBα (full length), P31749 (P31749 whole entry, looked up): as the sequence (P31749 whole entry S473D, looked up) above, with D473S counted along it
Sequence of GST-PKBα[F472A] (full length), P31749 (P31749 whole entry F472A, looked up): as the sequence (P31749 whole entry S473D, looked up) above, with F472A, D473S counted along it

B1: His-PDK1 (PDK1 residues 52-556 with an N-terminal hexahistidine tag) (protein)
chain: HHHHHHDGTAAEPRPGAGSLQHAQPPPQPRKKRPEDFKFGKILGEGSFSTVVLARELATSREYAIKILEKRHIIKENKVPYVTRERDVMSRLDHPFFVKLYFTFQDDEKLYFGLSYAKNGELLKYIRKIGSFDETCTRFYTAEIVSALEYLHGKGIIHRDLKPENILLNEDMHIQITDFGTAKVLSPESKQARANSFVGTAQYVSPELLTEKSACKSSDLWALGCIIYQLVAGLPPFRAGNEYLIFQKIIKLEYDFPEKFFPKARDLVEKLLVLDATKRLGCEEMEGYGPLKAHPFFESVTWENLHQQTPPKLTAYLPAMSEDDEDCYGNYDNLLSQFGCMQVSSSSSSHSLSASDTGLPQRSGSNIEQYIHDLDSNSFELDLQFSEDEKRLLLEKQAGGNPWHQFVENNLILKMGPVDKRKGLFARRRQLLLTEGPHLYYVDPVNKVLKGEIPWSQELRPEAKNFKTFFVHTPNRTYYLMDPSGNAHKWCRKIQEVWRQRYQSHPDAAVQ
rate of phosphorylation at 100 µM, against T308tide [1]: PDKtide was phosphorylated at a rate over 100-fold greater than that using T308tide
Km of PDK1 for the peptide substrate (T308tide): compared to >10 mM for T308tide

B2: GST-PDK1 wild type (full length PDK1, residues 1-556, N-terminal GST) (protein)
chain: MARTTSQLYDAVPIQSSVVLCSCPSPSMVRTQTESSTPPGIPGGSRQGPAMDGTAAEPRPGAGSLQHAQPPPQPRKKRPEDFKFGKILGEGSFSTVVLARELATSREYAIKILEKRHIIKENKVPYVTRERDVMSRLDHPFFVKLYFTFQDDEKLYFGLSYAKNGELLKYIRKIGSFDETCTRFYTAEIVSALEYLHGKGIIHRDLKPENILLNEDMHIQITDFGTAKVLSPESKQARANSFVGTAQYVSPELLTEKSACKSSDLWALGCIIYQLVAGLPPFRAGNEYLIFQKIIKLEYDFPEKFFPKARDLVEKLLVLDATKRLGCEEMEGYGPLKAHPFFESVTWENLHQQTPPKLTAYLPAMSEDDEDCYGNYDNLLSQFGCMQVSSSSSSHSLSASDTGLPQRSGSNIEQYIHDLDSNSFELDLQFSEDEKRLLLEKQAGGNPWHQFVENNLILKMGPVDKRKGLFARRRQLLLTEGPHLYYVDPVNKVLKGEIPWSQELRPEAKNFKTFFVHTPNRTYYLMDPSGNAHKWCRKIQEVWRQRYQSHPDAAVQ
phosphorylation of GST-p70 S6K-T2 by GST-PDK1 in vitro (32P autoradiography), 4 µM peptide (D978A-PIFtide): poorly inhibited the phosphorylation of GST-p70 S6K-T2 by PDK1 slightly
phosphorylation of GST-p70 S6K-T2 by GST-PDK1 in vitro (32P autoradiography), 1.5 µM (GST-D978A-PIF): poorly inhibited the phosphorylation of GST-p70 S6K-T2 by PDK1 slightly
relative phosphorylation of the substrate by PDK1 in vitro (PKB[S473D] = 100), +PIFtide [2]: 19.3 relative
relative phosphorylation of the substrate by PDK1 in vitro (PKB[S473D] = 100), no PIFtide [2]: 28 relative
rate of phosphorylation by PDK1 in vitro, against the wild type enzyme [3]: PKB[F472A] was phosphorylated at a similar rate to the wild type PKB
relative phosphorylation of the substrate by PDK1 in vitro (PKB[S473D] = 100), +PIFtide [4]: 85.4 relative
relative phosphorylation of the substrate by PDK1 in vitro (this value taken as 100; 2.6 mol/mol PDK1/min), no PIFtide [4]: 100 relative
relative phosphorylation of the substrate by PDK1 in vitro (PKB[S473D] = 100), +PIFtide [5]: 3.8 relative
relative phosphorylation of the substrate by PDK1 in vitro (PKB[S473D] = 100), no PIFtide [5]: 8 relative
relative phosphorylation of the substrate by PDK1 in vitro (PKB[S473D] = 100), +PIFtide [6]: 9.6 relative
relative phosphorylation of the substrate by PDK1 in vitro (PKB[S473D] = 100), no PIFtide [6]: 71 relative
relative phosphorylation of the substrate by PDK1 in vitro (PKB[S473D] = 100), +PIFtide (GST-ΔPH-PKBα, P31749): 0.25 relative
relative phosphorylation of the substrate by PDK1 in vitro (PKB[S473D] = 100), no PIFtide (GST-ΔPH-PKBα, P31749): 0.4 relative
relative phosphorylation of the substrate by PDK1 in vitro (PKB[S473D] = 100), +PIFtide [7]: 0.2 relative
relative phosphorylation of the substrate by PDK1 in vitro (PKB[S473D] = 100), no PIFtide [7]: 0.9 relative
relative phosphorylation of the substrate by PDK1 in vitro (PKB[S473D] = 100), +PIFtide [8]: 7.4 relative
relative phosphorylation of the substrate by PDK1 in vitro (PKB[S473D] = 100), no PIFtide [8]: 54 relative
relative phosphorylation of the substrate by PDK1 in vitro (32P, SDS-PAGE, PhosphoImager; PKB[S473D] with PtdIns(3,4,5)P3 = 100), no PIFtide [9]: 10.4 relative
relative phosphorylation of the substrate by PDK1 in vitro (PKB[S473D] = 100), +PIFtide [9]: 0.58 relative
phosphorylation of GST-p70 S6K-T2 by GST-PDK1 in vitro (32P autoradiography), 4 µM peptide [10]: prevented PDK1 from phosphorylating GST-p70 S6K-T2
phosphorylation of GST-p70 S6K-T2 (wt and 252A) at Thr412 by wt-GST-PDK1, T412-P immunoblot [11]: band in every lane without PIF peptide, no band in the neighbouring lane with PIF peptide (4 µM), for PDK1 from 293 cells and from E. coli
phosphorylation of GST-p70 S6K-T2 at Thr412 by GST-PDK1 (T412-P immunoblot), 4 µM peptide [11]: The 24 residue PIF peptide prevented PDK1 from phosphorylating the p70 S6K at Thr412

B3: GST-PDK1[L155E] (protein)
chain: B2 chain with L155E
relative phosphorylation of the substrate by PDK1-L155E in vitro (PKB[S473D] with wild type PDK1 = 100), +PIFtide [2]: 35 relative
relative phosphorylation of the substrate by PDK1-L155E in vitro (PKB[S473D] with wild type PDK1 = 100), no PIFtide [2]: 35 relative
relative phosphorylation of the substrate by PDK1-L155E in vitro (PKB[S473D] with wild type PDK1 = 100), +PIFtide [4]: 162 relative
relative phosphorylation of the substrate by PDK1-L155E in vitro (PKB[S473D] with wild type PDK1 = 100), no PIFtide [4]: 178 relative
relative phosphorylation of the substrate by PDK1-L155E in vitro (PKB[S473D] with wild type PDK1 = 100), +PIFtide [5]: 2.4 relative
relative phosphorylation of the substrate by PDK1-L155E in vitro (PKB[S473D] with wild type PDK1 = 100), no PIFtide [5]: 3.3 relative
relative phosphorylation of the substrate by PDK1-L155E in vitro (PKB[S473D] with wild type PDK1 = 100), +PIFtide [6]: 3.4 relative
relative phosphorylation of the substrate by PDK1-L155E in vitro (PKB[S473D] with wild type PDK1 = 100), no PIFtide [6]: 3.5 relative
relative phosphorylation of the substrate by PDK1-L155E in vitro (PKB[S473D] with wild type PDK1 = 100), +PIFtide (GST-ΔPH-PKBα, P31749): 0.25 relative
relative phosphorylation of the substrate by PDK1-L155E in vitro (PKB[S473D] with wild type PDK1 = 100), no PIFtide (GST-ΔPH-PKBα, P31749): 0.23 relative
relative phosphorylation of the substrate by PDK1-L155E in vitro (PKB[S473D] with wild type PDK1 = 100), +PIFtide [7]: 0.15 relative
relative phosphorylation of the substrate by PDK1-L155E in vitro (PKB[S473D] with wild type PDK1 = 100), no PIFtide [7]: 0.18 relative
relative phosphorylation of the substrate by PDK1-L155E in vitro (PKB[S473D] with wild type PDK1 = 100), +PIFtide [8]: 0.108 relative
relative phosphorylation of the substrate by PDK1-L155E in vitro (PKB[S473D] with wild type PDK1 = 100), no PIFtide [8]: 0.5 relative
relative phosphorylation of the substrate by PDK1-L155E in vitro (PKB[S473D] with wild type PDK1 = 100), +PIFtide [9]: 0.27 relative
relative phosphorylation of the substrate by PDK1-L155E in vitro (PKB[S473D] with wild type PDK1 = 100), no PIFtide [9]: 0.6 relative
